Results: patent publication US20240261333A1, “NOVEL TARGETS FOR ENHANCING ANTI-TUMOR IMMUNITY” (THE BROAD INSTITUTE, INC., priority 2021, published 2024)

T1: B3GNT2 (Homo sapiens, UniProt Q9NY97)
T1 construct: The respective ORFs of candidate genes [CD274 (NM_014143), MCL1 (NM_021960), JUNB (NM_002229), and B3GNT2 (NM_006577)] were synthesized; expressed in transfected cells; host or cells: A375 melanoma cells (lentiviral ORF overexpression)
T1 sequence (Q9NY97 1-397): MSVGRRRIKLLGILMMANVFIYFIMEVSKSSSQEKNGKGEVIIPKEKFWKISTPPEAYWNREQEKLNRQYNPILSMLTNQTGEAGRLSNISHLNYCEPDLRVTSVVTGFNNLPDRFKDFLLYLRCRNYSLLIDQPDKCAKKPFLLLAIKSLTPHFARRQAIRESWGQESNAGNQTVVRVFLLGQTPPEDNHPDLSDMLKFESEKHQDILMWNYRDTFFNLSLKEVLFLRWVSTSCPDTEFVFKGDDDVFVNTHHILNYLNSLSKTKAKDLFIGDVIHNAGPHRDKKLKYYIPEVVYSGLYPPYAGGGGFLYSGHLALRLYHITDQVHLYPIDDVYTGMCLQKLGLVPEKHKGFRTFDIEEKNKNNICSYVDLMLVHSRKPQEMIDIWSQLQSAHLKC

B1: CAT (protein)
chain: ADSRDPASDQMQHWKEQRAAQKADVLTTGAGNPVGDKLNVITVGPRGPLLVQDVVFTDEMAHFDRERIPERVVHAKGAGAFGYFEVTHDITKYSKAKVFEHIGKKTPIAVRFSTVAGESGSADTVRDPRGFAVKFYTEDGNWDLVGNNTPIFFIRDPILFPSFIHSQKRNPQTHLKDPDMVWDFWSLRPESLHQVSFLFSDRGIPDGHRHMNGYGSHTFKLVNANGEAVYCKFHYKTDQGIKNLSVEDAARLSQEDPDYGIRDLFNAIATGKYPSWTFYIQVMTFNQAETFPFNPFDLTKVWPHKDYPLIPVGKLVLNRNPVNYFAEVEQIAFDPSNMPPGIEASPDKMLQGRLFAYPDTHRHRLGPNYLHIPVNCPYRARVANYQRDGPMCMQDNQGGAPNYYPNSFGAPEQQPSALEHSIQYSGEVRRFNTANDDNVTQVRAFYVNVLNEEQRKRLCENIAGHLKDAQIFIQKKAVKNFTEVHPDYGSHIQALLDKYNAEKPKNAIHTFVQSGSHLAAREKANL
B2: MOV10 (protein)
chain: MPSKFSCRKLRETGQRFESFLAERGLDLETDRERLRTIYNHDFKPSYGTPAPGFSSMLYGMKIANLAFVTKTRVRFFKLDRWADVQLPEKRRIKPGSNISKQHRSLLARIFHDRAEYLHGKHGVDVEVQGPHEARDGQLLIHLDLNRKEVLTLRLRNGGSKPVTLTHLFPLCWTPQFVFYHGEQDLPCPLGPGESYELHIYCKTSIVGYFPATVLWELLGPGESGAEGAETFYIARFLAAVAHSPLAAQLKPTTPFKRPPRLTRNSVLTNRIEEGERPDRAKGYELELSLALGTYYPPILLRQLLPTLLQGPSIFTAPKEVAEIKAQLETTLKSRNYEVKLRLLLHLEELQMEHDIRHYDLDSVPMTWDPVDQNPRLLTLEVPGVAESRPSVLRGDHLFALLSSETQQDDPVTYKGFVHKVELDRVKLSFSTSLLSRFVDGLTFKVNFTFNRQPLRVQHRALELTGRWVLWPMLFPVASRGVSLLPSDVKFKLYDRSLESNPEQLQAMKHIVRGTTRPAPYIIFGPPGTGKTVTLVEAIKQVVKHLPKAHILACAPSNSGADLLCQRLRVHLPSSIYRLLAPSRDIRMVPEDIKTCCNWDAKKGEYVYPAKKHLQQYRVLITTLITASRLVSAQFPIDHFTHIFIDEAGHCMEPESLVAIAGLMDVKETGNPGGQLVLAGDPRQLGPVLRSPLALKHGLGYSLLERLLAYNSLYKKGPNGYDPQFITKLLRNYRSHPTILDIPNQLYYDGELQACADVVDRERFCRWEGLPQQGFPIIFHGVMGKDEREGNSPSFFNPEEAATVTSYLKQLLAPSSKKGKARLSPRNVGVISPYRKQVEKIRYCITKLDRELRGLDDIKDLKVGSVEEFQGQERSVILISTVRSSQSFVQLDLDFNLGFLKNPKRFNVAVTRAKALLIVVGNPLLLGHDPDWKTFLEFCKENGGYTGCPFPAKLDLQQGQDLLQGLSKLSPSTSGPRRHQNLPQEREGEGGLPLQVEPEWRNEL
B3: DNAJC3 (protein)
chain: GVNADVEKHLELGKKLLAAGQLADALSQFHAAVDGDPDNYIAYYRRATVFLAMGKSKAALPDLTKVIQLKMDFTAARLQRGHLLLKQGKLDEAEDDFKKVLKSNPSENEEKEAQSQLIKSDEMQRLRSQALNAFGSGDYTAAIAFLDKILEVCVWDAELRELRAECFIKEGEPRKAISDLKAASKLKNDNTEAFYKISTLYYQLGDHELSLSEVRECLKLDQDHKRCFAHYKQVKKLNKLIESAEELIRDGRYTDATSKYESVMKTEPSIAEYTVRSKERICHCFSKDEKPVEAIRVCSEVLQMEPDNVNALKDRAEAYLIEEMYDEAIQDYETAQEHNENDQQIREGLEKAQRLLKQSQKRDYYKILGVKRNAKKQEIIKAYRKLALQWHPDNFQNEEEKKKAEKKFIDIAAAKEVLSDPEMRKKFDDGEDPLDAESQQGGGGNPFHRSWNSWQGFNPFSSGGPFRFKFHFN
B4: KRT6B (protein)
chain: ASTSTTIRSHSSSRRGFSANSARLPGVSRSGFSSISVSRSRGSGGLGGACGGAGFGSRSLYGLGGSKRISIGGGSCAISGGYGSRAGGSYGFGGAGSGFGFGGGAGIGFGLGGGAGLAGGFGGPGFPVCPPGGIQEVTVNQSLLTPLNLQIDPAIQRVRAEEREQIKTLNNKFASFIDKVRFLEQQNKVLDTKWTLLQEQGTKTVRQNLEPLFEQYINNLRRQLDNIVGERGRLDSELRNMQDLVEDLKNKYEDEINKRTAAENEFVTLKKDVDAAYMNKVELQAKADTLTDEINFLRALYDAELSQMQTHISDTSVVLSMDNNRNLDLDSIIAEVKAQYEEIAQRSRAEAESWYQTKYEELQITAGRHGDDLRNTKQEIAEINRMIQRLRSEIDHVKKQCANLQAAIADAEQRGEMALKDAKNKLEGLEDALQKAKQDLARLLKEYQELMNVKLALDVEIATYRKLLEGEECRLNGEGVGQVNISVVQSTVSSGYGGASGVGSGLGLGGGSSYSYGSGLGVGGGFSSSSGRATGGGLSSVGGGSSTIKYTTTSSSSRKSYKH
B5: LSM12 (protein)
chain: AAPPGEYFSVGSQVSCRTCQEQRLQGEVVAFDYQSKMLALKCPSSSGKPNHADILLINLQYVSEVEIINDRTETPPPLASLNVSKLASKARTEKEEKLSQAYAISAGVSLEGQQLFQTIHKTIKDCKWQEKNIVVMEEVVITPPYQVENCKGKEGSALSHVRKIVEKHFRDVESQKILQRSQAQQPQKEAALSS
B6: C1orf68 (protein)
chain: MCDQQKQPQFPPSCVKGSGLGAGQGSNGASVKCPVPCQTQTVCVTGPAPCPTQTYVKYQVPCQTQTYVKCPAPCQRTYVKYPTPCQTYVKCPAPCQTTYVKCPTPCQTYVKCPAPCQMTYIKSPAPCQTQTCYVQGASPCQSYYVQAPASGSTSQYCVTDPCSAPCSTSYCCLAPRTFGVSPLRRWIQRPQNCNTGSSGCCENSGSSGCCGSGGCGCSCGCGSSGCCCLGIIPMRSRGPACCDHEDDCCC
B7: ATXN2 (protein)
chain: MRSAAAAPRSPAVATESRRFAAARWPGWRSLQRPARRSGRGGGGAAPGPYPSAAPPPPGPGPPPSRQSSPPSASDCFGSNGNGGGAFRPGSRRLLGLGGPPRPFVVLLLPLASPGAPPAAPTRASPLGARASPPRSGVSLARPAPGCPRPACEPVYGPLTMSLKPQQQQQQQQQQQQQQQQQQQQQQQPPPAAANVRKPGGSGLLASPAAAPSPSSSSVSSSSATAPSSVVAATSGGGRPGLGRGRNSNKGLPQSTISFDGIYANMRMVHILTSVVGSKCEVQVKNGGIYEGVFKTYSPKCDLVLDAAHEKSTESSSGPKREEIMESILFKCSDFVVVQFKDMDSSYAKRDAFTDSAISAKVNGEHKEKDLEPWDAGELTANEELEALENDVSNGWDPNDMFRYNEENYGVVSTYDSSLSSYTVPLERDNSEEFLKREARANQLAEEIESSAQYKARVALENDDRSEEEKYTAVQRNSSEREGHSINTRENKYIPPGQRNREVISWGSGRQNSPRMGQPGSGSMPSRSTSHTSDFNPNSGSDQRVVNGGVPWPSPCPSPSSRPPSRYQSGPNSLPPRAATPTRPPSRPPSRPSRPPSHPSAHGSPAPVSTMPKRMSSEGPPRMSPKAQRHPRNHRVSAGRGSISSGLEFVSHNPPSEAATPPVARTSPSGGTWSSVVSGVPRLSPKTHRPRSPRQNSIGNTPSGPVLASPQAGIIPTEAVAMPIPAASPTPASPASNRAVTPSSEAKDSRLQDQRQNSPAGNKENIKPNETSPSFSKAENKGISPVVSEHRKQIDDLKKFKNDFRLQPSSTSESMDQLLNKNREGEKSRDLIKDKIEPSAKDSFIENSSSNCTSGSSKPNSPSISPSILSNTEHKRGPEVTSQGVQTSSPACKQEKDDKEEKKDAAEQVRKSTLNPNAKEFNPRSFSQPKPSTTPTSPRPQAQPSPSMVGHQQPTPVYTQPVCFAPNMMYPVPVSPGVQPLYPIPMTPMPVNQAKTYRAVPNMPQQRQDQHHQSAMMHPASAAGPPIAATPPAYSTQYVAYSPQQFPNQPLVQHVPHYQSQHPHVYSPVIQGNARMMAPPTHAQPGLVSSSATQYGAHEQTHAMYACPKLPYNKETSPSFYFAISTGSLAQQYAHPNATLHPHTPHPQPSATPTGQQQSQHGGSHPAPSPVQHHQHQAAQALHLASPQQQSAIYHAGLAPTPPSMTPASNTQSPQNSFPAAQQTVFTIHPSHVQPAYTNPPHMAHVPQAHVQSGMVPSHPTAHAPMMLMTTQPPGGPQAALAQSALQPIPVSTTAHFPYMTHPSVQAHHQQQL
B8: SLC25A6 (protein)
chain: MTEQAISFAKDFLAGGIAAAISKTAVAPIERVKLLLQVQHASKQIAADKQYKGIVDCIVRIPKEQGVLSFWRGNLANVIRYFPTQALNFAFKDKYKQIFLGGVDKHTQFWRYFAGNLASGGAAGATSLCFVYPLDFARTRLAADVGKSGTEREFRGLGDCLVKITKSDGIRGLYQGFSVSVQGIIIYRAAYFGVYDTAKGMLPDPKNTHIVVSWMIAQTVTAVAGVVSYPFDTVRRRMMMQSGRKGADIMYTGTVDCWRKIFRDEGGKAFFKGAWSNVLRGMGGAFVLVLYDELKKVI

Target: T1, B3GNT2
Assay: Co-IP of FLAG-tagged B3GNT2 followed by mass spectrometry
Assay type: cell-based
Parameters: C-term IgG / C-term flag: unit not given here
Conditions: Co-IP followed by mass spectrometry of B3GNT2; C-term tag, FLAG pull-down
In short: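 Co-purifying proteins were identified by fractionated nano-LC–MS/MS on an Orbitrap Elite, run data-dependent. Beforehand, lysates in 1% Triton X-100/HEPES buffer were incubated overnight at 4° C with anti-FLAG or […] and pulled down on Protein A/G magnetic beads for 4 h. Duplicate biological replicates.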

C-term flag	Molecule
0	B1
3	B2
3	B3
331	B4
4	B5
2	B6
3	B7

Same assay, conditions: Co-IP followed by mass spectrometry of B3GNT2; C-term tag, IgG pull-down

C-term IgG	Molecule
3	B1
3	B2
0	B3
295	B4
0	B5
4	B6
3	B7

Same assay, conditions: Co-IP followed by mass spectrometry of B3GNT2; N-term tag, FLAG pull-down

N-term FLAG	Molecule
6	B1
4	B2
0	B3
370	B4
4	B5
13	B6
4	B7

Same assay, conditions: Co-IP followed by mass spectrometry of B3GNT2; N-term tag, IgG pull-down

N-term IgG	Molecule
2	B1
3	B2
0	B3
316	B4
2	B5
0	B6
3	B7

Same assay, conditions: Co-IP with FLAG antibody, C-terminally FLAG-tagged B3GNT2; mass spectrometry count, unit not given

C-term flag	Molecule
19	B8

Same assay, conditions: Co-IP with FLAG antibody, N-terminally FLAG-tagged B3GNT2; mass spectrometry count, unit not given

N-term FLAG	Molecule
15	B8

Same assay, conditions: Co-IP with IgG control antibody, C-terminally FLAG-tagged B3GNT2; mass spectrometry count, unit not given

C-term IgG	Molecule
0	B8

Same assay, conditions: Co-IP with IgG control antibody, N-terminally FLAG-tagged B3GNT2; mass spectrometry count, unit not given

N-term IgG	Molecule
0	B8
